From the supplement of paper PMC9170038

Test system: MS2 coat protein
Assay: apparent KD of MS2 coat protein; designed switch direction (-1 OFF switch, 1 ON switch): -1; higher = weaker reporter binding
Summary of the method: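 Transcription of designed RNA switches on Illumina chips was done by stalled E. coli RNA polymerase. SNAP-549-labelled MS2 coat protein was then titrated in doubling steps from 0.7 or 1.5 nM to 3 µM, with steps of 0.8–1.5 h at the lowest and 10–20 min at the highest concentration. The per-design median over clusters of curve-fitted normalised fluorescence is reported as apparent KD.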

[1] = input ligand: microRNA oligo, concentration not stated
[2] = Eterna round: R95, input ligand: microRNA oligo, concentration not stated
[3] = Eterna round: R95, input ligand: FMN 200 uM
[4] = Eterna round: R95, input ligand: none

Sequence	apparent KD of MS2 coat protein (input ligand: FMN 200 uM)	apparent KD of MS2 coat protein (input ligand: none)	apparent KD of MS2 coat protein [1]	apparent KD of MS2 coat protein [2]	apparent KD of MS2 coat protein [3]	apparent KD of MS2 coat protein [4]
GCUUGACGAGGAUAUGCAUACACUGGAUACAGUGGAAGGUCACAUGAGGAUCACCCAUGUAGAAGGCGUCGAGC [EX2 #40] (Eterna round: R97, puzzle: Exclusion 2)	123 nM	35.4 nM				
CUAGCGAGUGUAGGAUAUCGGACUGUUUCAGUCUGAGAAGGACAUGAGGAUCACCCAUGUGAAGCUACGUGAGUAGCACGCUAG [JL ENG1 3.87] (Eterna round: R96, puzzle: Exclusion NG 1)	74.5 nM	24.5 nM	18.3 nM			
UGAGACUGAGGAUAUACUUGCCCAUAAAGUGGGUAGUGGGUACAUGAGGAUCACCCAUGUAGAAGGCAGCCUCG [Omei Repeat Sequence v3] (Eterna round: R97, puzzle: Exclusion 2)	597 nM	46.3 nM				
GACCCACAUGAGGAUCACCCAUGUGAGGAUAUCAUGCUUCGUAGUAAACUACGAAGUGUGAGAAGGCACAAUGG [Omei Ex1 C7] (Eterna round: R97, puzzle: Exclusion 1)	134 nM	37.4 nM				
UAUCGCAAGCGAAGAUCCCACAUGAGGAUCACCCAUGUGCUCGUCUUAUAAGGUACUGUGACGAAAGUCACGGUACC [Sensor 3, v1 - 91 v15] (Eterna round: R97, puzzle: Sensor, turn-off variant 1)	31.6 nM	32.2 nM				
UUUUUGUGAGGAUAUCAGUAGUAAAAAAAUAAAAUUACUACUGAGAAGGCACAUGAGGAUCACCCAUGUUUUUC [salish99_ex4_r3_014] (puzzle: Exclusion 4)				35.6 nM		
AGAUGGCGAGGAUAUACAUGAGGAUCACCCAUGUGAGAUAAGAAAGUGAGGAAGAAAAGUAGAAGGCGCUGUCA [Mat - Exclusion 3 - Mod of Salish D12] (puzzle: Exclusion 3)				58.6 nM	281 nM	58.4 nM
AAAGAAGAAGUCAGGAUAUAGUUAAAGAAGACCGACUAGAAGGGACAUGAGGAUCACCCAUGUGUCAGUGGGUA [Lasoaned] (puzzle: Brourd's mod of Exclusion 4)				77.6 nM	279 nM	133 nM
UACUAUAAGGAGGAUAUCGUAUCGGAAACGAUACGAGAAGGCUUAACAUGAGGAUCACCCAUGUUCUUCAAUAA [Fiskers Ex 6 - 25] (puzzle: Exclusion 6)				16.2 nM		
AUUGCGCGAGGAUAUACGAGAGACCUGUGUCAGAACCAUGGACAUGAGGAUCACCCAUGUAGAAGGCGUGCUCU [Eternabot (L1) Solution 73] (Eterna round: R97, puzzle: Exclusion 2)	78.6 nM	1200 nM				
AGCCUGUAAUCCCUCAGACAUGAGGAUCACCCAUGUGGAUGUAAGGAUAUAGGUGCAAUUGCAAUCUAGAAGGUACGCCGUCAG [Eternabot solution 32] (Eterna round: R96, puzzle: Exclusion NG 3)	44.8 nM	31.4 nM	23.1 nM			
CCCGUGUGAGGAUAUCGUUCACUUGGCGAAAGUCGAGUGGACGAGAAGGUACAUGAGGAUCACCCAUGUGCGGG [-36.1, -35.4 kcal, A 24%] (Eterna round: R97, puzzle: Exclusion 4)	155 nM	134 nM				
CGUCAGUCAGGAUAUGCAUACGUAGACAUGAGGAUCACCCAUGUGACGUGGGACUGGUGUGUAGAAGGGACGAACA [EX5 #78] (Eterna round: R97, puzzle: Exclusion 5)	23.1 nM	21.3 nM				
GCUCUUGGGCAAGGAUAUCCUGCGCGGUUCCGGUUCGUGUCUGUCACAUGAGGAUCACCCAUGUGGGAGAAGGUGCCUGCGGUG [Design 74] (Eterna round: R96, puzzle: Exclusion NG 2)	28.6 nM	15.9 nM	12.3 nM			
AUAAAACGAGGAUAUGCUGGGCUUCUGUGAUGCAUAUGCUCACAUGAGGAUCACCCAUGUAGAAGGUGUAAAAU [Laaceve] (Eterna round: R96, puzzle: Exclusion 2)	389 nM	331 nM	221 nM			
UACAUGAGGAUCACCCAUGUUUUGUCGUGUAUGGUAUUUAUCUAGGAUAUCAAGUUAUUUAUGUAUGAGAAGGAGAAUAUUAAU [JMF's solution 36] (Eterna round: R96, puzzle: Exclusion NG 3)	42.5 nM	35.2 nM	26.4 nM			
AUGCGUGGCUAGGAUAUCGAGGAAUUUAGCCAGCGAGAAGGAGCCACAUGAGGAUCACCCAUGUGGUGAACCUC [jl-ex6-4.62 ViennaUCT mod] (Eterna round: R97, puzzle: Exclusion 6)	41.1 nM	10.2 nM				

Sequence	apparent KD of MS2 coat protein (input ligand: FMN 200 uM)	apparent KD of MS2 coat protein (input ligand: none)	apparent KD of MS2 coat protein [1]	apparent KD of MS2 coat protein [2]	apparent KD of MS2 coat protein [3]	apparent KD of MS2 coat protein [4]
AGGAGACAUGAGGAUCACCCAUGUGAGGAUAUCGAUGUUACGUGGAUAACCACUUCGUUGAGAAGGCACGCUUC [Eternabot (L2) Solution 55] (Eterna round: R97, puzzle: Exclusion 1)	43 nM	38.6 nM				
UUAAUGUGAGGAUAUCAGGUGUGCUAGCGUACUGGUACAUCUGAGAAGGCACAUGAGGAUCACCCAUGUUCCUU [JL-ex4-3.27 Brourd mod] (Eterna round: R96, puzzle: Exclusion 4)	59.4 nM	20.6 nM	15.9 nM			
CAUUAGCAAGCGAGAUCCCACAUGAGGAUCACCCAUGUGCUCGUCUUAUAAGGUACUGUGACGAUAGUCACGGUACC [Mat - Sensor, turn-off var - Eli Mod - D41] (Eterna round: R97, puzzle: Sensor, turn-off variant 1)	17.1 nM	14.3 nM				
GGAUUUCCUGAGGAUAUUGCAUCACCCGAUUUAUAAGAAGGCAGAACAUGAGGAUCACCCAUGUGGGUCUCCAG [Bingo-Bango-24] (Eterna round: R97, puzzle: Exclusion 6)	22.9 nM	17.9 nM				
UUAUAUAGUGUGAGGAUAUGCUGGUCCUUGGAUCAGCAGAAGGCACAUGAGGAUCACCCAUGUAGUUUAUUUUU [Mat - Exclusion 4 - JL Mod - D4] (puzzle: Brourd's mod of Exclusion 4)				25.9 nM		
AGUGUGGGAGGAUAUACAUGAGGAUCACCCAUGUGAGUUGGCUCACAUGCUACGCUUCGUAGAAGGCCCAAAGA [Reragebion] (Eterna round: R96, puzzle: Exclusion 3)	554 nM	91.3 nM	86.2 nM			
CUUUUGUGAGGAUAUCAGUAGUAAAUUAAUAAAAUUACUACUGAGAAGGCACAUGAGGAUCACCCAUGUUCCUC [salish99_ex3_r3_078] (puzzle: Exclusion 4)				41.9 nM		
GUGUGCACGCUGCGAUCCUACAUGAGGAUCACCCAUGUGGUCUGGUGGCGUGGGUCACCGGACUUGGCUCGUCUUGG [salish99_S_TOV1_R5_077] (Eterna round: R97, puzzle: Sensor, turn-off variant 1)	171 nM	169 nM				
GUCAUCAAACAUGGGUUAAACAUGAGGAUCACCCAUGUAUACAAGUUUUUUGCUCGUCUUAUAAUAAGUUUGAUGAC [Antenna 7 - Jieux - Sensor, turn-off variant 1] (Eterna round: R97, puzzle: Sensor, turn-off variant 1)	59.9 nM	66.8 nM				
CAAGUCCUUUACUACAAGCACAUGAGGAUCACCCAUGUCAAAUUUGUGCCUCGGUACGGAAGCUCGUCUUUUCGUAG [Eternabot (L2) Solution 1] (Eterna round: R97, puzzle: Sensor, turn-off variant 1)	30 nM	35.6 nM				
UUUACAAGCUUUAGAUCCCACAUGAGGAUCACCCAUGUUCCUGGCCGUGAGGCUAGGUAAACUAAUGCUCGUCUUAU [JL TOV1 3.65] (Eterna round: R97, puzzle: Sensor, turn-off variant 1)	197 nM	244 nM				
GCGGACUAGAUCGUGAGAUCUGAGACAUGAGGAUCACCCAUGUAGGAUAUCGAUUCGAAACGAAUCGAGAAGGGCAUAGUCCGC [JL denovo 8] (Eterna round: R96, puzzle: Exclusion NG 3)	23.1 nM	22 nM	16 nM			
CCACUUACUGAGGAUAUUGCAUCACCCGACUGAUAAGAAGGCAGAACAUGAGGAUCACCCAUGUGGGUACUCAC [Bingo-Bango-9] (Eterna round: R97, puzzle: Exclusion 6)	207 nM	155 nM				
ACUGUUUGAUACCUCUUAUACAUGAGGAUCACCCAUGUUAUCGAGGAUAUGCAUUAGAGUGGUUAGCAGAAGGCGAUGUAAUUG [JR_ExcNG3_Sub032] (Eterna round: R96, puzzle: Exclusion NG 3)	30.8 nM	13.5 nM	12.1 nM			
CAGUACUGAGGAUAUACAUGAGGAUCACCCAUGUGUCCCUGCUAGGAAACUAGCAAUAGUAGAAGGCAGUACUG [Fiskers Ex 3 828 mod 4] (puzzle: Exclusion 3)				17 nM		
GGUGGACAUGAGGAUCACCCAUGUGAGGAUAUCGGCUGGCUAGCGGCGGAUGGCUUCUCGAGAAGGCGCAUAGU [Exclusion 1 V81] (puzzle: Exclusion 1)				62.7 nM		
CUGAGCUCAGGAUAUACAUGAGGAUCACCCAUGUGUUCCUGCGACGUUAGUUGCACAUGUAGAAGGGAGUUCGG [Less Extended Mod of JL - ex3-3.35 Brourd mod] (puzzle: Exclusion 3)				218 nM		
